Assay results reported in patent publication US20090291088A1, “THERAPEUTIC COMBINATIONS OF ANTI-IGF-1R ANTIBODIES AND OTHER COMPOUNDS” (Biogen Idec MA Inc., priority 2008, published 2009).

What was measured:
[1] = target: T1, human IGF-1R(1-902)-His10 (Homo sapiens, UniProt P08069); assay: SPR, receptor ectodomain injected over immobilized antibodies: hIGF-1R-His10; assay type: binding; settings: full-length fully human antibodies; even at the lowest concentration
T1 construct: human IGF-1R(1-902)-His10 (hIGF-1R-His10 (R&D systems)); purchased R&D systems 305-GR-050
Description: (§1) SPR analyses were performed using a Biacore3000. The instrument was set to 25° C. and assays performed with running buffer HBS-EP pH 7.2 purchased from Biacore (Biacore, Cat. No. BR-1001-88). The fully human antibodies, M13-C06, M14-C03, and M14-G11 were immobilized to ˜10,000 RU on Biacore CM5 Research Grade Sensor Chip surfaces using the standard NHS/EDC-amine reactive chemistry according to protocols supplied by Biacore. For immobilization, the antibodies were diluted to 40 μg/mL in a 10 mM Acetate pH 4.0 buffer. To investigate the relative kinetics of association and dissociation of the full-length ectodomains of human IGF-1R(1-902)-His10 (hIGF-1R-His10 (R&D systems)) and human INSR(28-956)-His10 (INSR (R&D systems)) to each of the human antibodies, increasing concentrations of hIGF-1R-His10 or INSR were injected over the sensorchip surfaces. The hIGF-1R-His10 concentration series ranged from 1.0 nM to 250 nM while the INSR concentrations ranged from 1.0 nM to 2 μM. All antibody surfaces were reliably regenerated with 100 mM Glycine, pH 2.0. […] Flow rates were 20 μl/min. (“His10” denotes a 10-residue histidine tag on the C-terminus of the constructs.)

human INSR(28-956)-His10 = target: T2, human INSR(28-956)-His10 (Homo sapiens, UniProt P06213); assay: SPR, receptor ectodomain injected over immobilized antibodies: INSR; assay type: binding; settings: full-length fully human antibodies; up to 2 μM receptor
T2 construct: human INSR(28-956)-His10 (INSR (R&D systems)); purchased R & D Systems 1544-IR
Description: as §1

hIGF-1R(1-462)-Fc = target: T3, hIGF-1R(1-462)-Fc (Homo sapiens, UniProt P08069); assay: SPR binding of immobilized antibodies to truncated hIGF-1R(1-462)-Fc versus hIGF-1R(1-903)Fc; settings: surface immobilized antibody
T3 construct: host or cells: CHO
From the text: Next, we investigated whether M13-C06 binds the putative ligand binding domains of IGF-1R (L1-CR-L2). We generated a truncated version of the receptor containing the N-terminal three domains (residues 1-462) fused to an IgG1-Fc and compared its ability to bind M13-C06, M14-C03, and M14-G11 to that of the full-length receptor ectodomain construct, hIGF-1R-Fc, using surface plasmon resonance (SPR).

hIGF-1R-Fc = target: T4, hIGF-1R-Fc (Homo sapiens, UniProt P08069); assay: Antibody cross-blocking ELISA with biotinylated M13-C06 or M14-G11; assay type: binding
T4 construct: (3) human IGF-1R(1-903)-Fc (hIGF-1R-Fc, Biogen Idec); host or cells: CHO
Description: The ability of various antibodies to block M13-C06 or M14-G11 was determined using biotinylated version of both antibodies and hIGF-1R-Fc. Briefly, 50 μL of 2 μg/mL hIGF-1R-Fc in 1×PBS were coated per well of a 96-well clear MaxiSorp plate (Nunc) for 2 hours at room temperature (RT, no shaking). Plates were washed with 1×PBS and blocked overnight at 2-8° C. using a PBS/1% BSA solution. Plates were washed and incubated with a 100 μL mixture of biotinylated M13-C06 or biotinylated M14-G11 (80 ng/mL) and inhibitor antibody for 1 hour at RT. Inhibitor antibodies were serially diluted (5-fold dilutions) from 40 μg/mL to 3 ng/mL. M13-C06 and M14-G11 were biotinylated using EZ-Link Sulfo-NHS-LC-Biotin according to protocol provided by the manufacturer (Pierce Cat. No. 21335). A control was also performed by serial dilution of a non-IGF-1R specific IgG4 isotype control antibody with biotinylated M13-C06 or biotinylated M14-G11. Plates were washed and shaken for 1 hour at RT with 100 μL/well streptavidin-HRP (1:4000 dilution into blocking buffer, Southern Biotech Cat. No. 7100-05). Plates were washed and 100 μL/well SureBlue Reserve TMB Microwell Peroxidase Substrate (KPL, Cat. No. 53-00-01) was added to the wells. Detection of the presence of biotinylated M13-C06 or M14-G11 was performed by reading the absorbance at 650 nm every 5 minutes using a Wallac 1420-041 Multilabel Counter plate reader.

binding of hIGF-1R-His10 to immobilized antibody surface [1]: demonstrated binding | binding of INSR to immobilized antibody surface (human INSR(28-956)-His10): little binding activity | binding to truncated hIGF-1R(1-462)-Fc compared with full-length hIGF-1R-Fc (hIGF-1R(1-462)-Fc): dramatically reduced
B1: M14-C03: anti-IGF-1R antibody, allosteric blocker of IGF-1 and IGF-2 (antibody, V domains shown)
VH: EVQLLESGGGLVQPGGSLRLSCAASGFTFSKYMMSWVRQAPGKGLEWVSYISPSGGLTWYADSVKGRFTISRDNSKNTLYLQMNSLRAEDTAVYYCARDGARGYGMDVWGQGTTVTVSS
VL: DIQMTQSPATLSLSPGERATLSCRASQSVSSYLAWYQQKPGQAPRLLIYDASNRATGIPARFSGSGSGTDFTLTISSLEPEDFAVYYCQQRSNWPPEVTFGPGTKVDIK
modifications: Antibody variable heavy chain sequence; Antibody variable light chain sequence
M13-C06 cross-blocking (hIGF-1R-Fc): +++++ (+++++ = antibody binding competition relative to itself (90-100%))
